# Experimental data reported in PMC7176092, “Development of the first in vivo GPR17 ligand through an iterative drug discovery pipeline: A novel disease-modifying strategy for multiple sclerosis” (PLoS ONE, 2020).
# T1: M5 (Homo sapiens, UniProt P08912)
# T1 construct: Eurofins Cerep (external service)
# T1 sequence (P08912 1-532): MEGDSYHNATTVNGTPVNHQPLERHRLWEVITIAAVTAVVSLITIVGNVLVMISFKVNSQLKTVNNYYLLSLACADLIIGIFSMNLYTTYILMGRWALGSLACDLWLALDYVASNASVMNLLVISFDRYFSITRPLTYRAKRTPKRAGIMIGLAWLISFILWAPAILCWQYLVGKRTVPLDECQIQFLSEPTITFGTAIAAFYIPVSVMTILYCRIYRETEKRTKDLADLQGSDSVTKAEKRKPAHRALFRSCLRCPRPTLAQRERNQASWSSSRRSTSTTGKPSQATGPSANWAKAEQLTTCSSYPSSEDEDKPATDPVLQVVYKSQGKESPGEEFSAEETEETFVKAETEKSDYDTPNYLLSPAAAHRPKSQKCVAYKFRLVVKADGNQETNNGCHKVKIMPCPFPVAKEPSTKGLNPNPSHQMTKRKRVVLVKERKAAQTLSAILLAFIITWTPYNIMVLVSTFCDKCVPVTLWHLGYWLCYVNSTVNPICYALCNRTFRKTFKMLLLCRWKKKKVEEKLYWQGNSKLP
# T2: CXCR5 (Homo sapiens, UniProt P32302)
# T2 sequence (P32302 1-372): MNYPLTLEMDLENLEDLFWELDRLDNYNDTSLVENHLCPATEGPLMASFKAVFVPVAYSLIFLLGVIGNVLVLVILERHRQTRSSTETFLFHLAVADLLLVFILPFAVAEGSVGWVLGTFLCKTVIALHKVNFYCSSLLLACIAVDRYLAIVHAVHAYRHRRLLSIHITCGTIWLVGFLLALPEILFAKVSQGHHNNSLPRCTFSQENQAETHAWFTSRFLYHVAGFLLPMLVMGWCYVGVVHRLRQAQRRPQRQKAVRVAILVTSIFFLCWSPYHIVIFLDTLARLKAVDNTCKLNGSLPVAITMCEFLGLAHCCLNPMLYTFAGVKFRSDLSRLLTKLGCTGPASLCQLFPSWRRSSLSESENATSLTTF
# T3: CXCR3 (Homo sapiens, UniProt P49682)
# T3 sequence (P49682 1-368): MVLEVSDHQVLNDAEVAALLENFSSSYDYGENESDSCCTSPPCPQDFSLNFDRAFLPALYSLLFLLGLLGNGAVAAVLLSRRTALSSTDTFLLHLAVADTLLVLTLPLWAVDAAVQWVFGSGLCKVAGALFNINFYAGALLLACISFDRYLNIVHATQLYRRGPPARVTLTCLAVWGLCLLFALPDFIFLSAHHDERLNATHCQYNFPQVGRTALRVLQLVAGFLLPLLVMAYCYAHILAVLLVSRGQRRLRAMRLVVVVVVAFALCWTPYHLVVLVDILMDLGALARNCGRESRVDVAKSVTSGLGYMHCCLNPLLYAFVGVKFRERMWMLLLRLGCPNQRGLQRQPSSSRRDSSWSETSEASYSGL
# T4: CXCR1 (Homo sapiens, UniProt P25024)
# T4 sequence (P25024 1-350): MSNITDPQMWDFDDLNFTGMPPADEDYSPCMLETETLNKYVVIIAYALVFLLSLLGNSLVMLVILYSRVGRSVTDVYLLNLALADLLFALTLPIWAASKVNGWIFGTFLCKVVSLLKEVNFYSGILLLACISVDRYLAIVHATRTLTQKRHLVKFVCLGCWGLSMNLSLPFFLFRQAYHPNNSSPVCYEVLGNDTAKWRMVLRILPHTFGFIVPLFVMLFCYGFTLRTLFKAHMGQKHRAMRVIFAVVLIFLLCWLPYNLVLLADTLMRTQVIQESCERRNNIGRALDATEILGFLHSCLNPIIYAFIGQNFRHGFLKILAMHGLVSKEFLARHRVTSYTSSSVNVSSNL
# T5: ADR1A (Homo sapiens, UniProt P35348)
# T5 construct: Eurofins Cerep (external service)
# T5 sequence (P35348 1-466): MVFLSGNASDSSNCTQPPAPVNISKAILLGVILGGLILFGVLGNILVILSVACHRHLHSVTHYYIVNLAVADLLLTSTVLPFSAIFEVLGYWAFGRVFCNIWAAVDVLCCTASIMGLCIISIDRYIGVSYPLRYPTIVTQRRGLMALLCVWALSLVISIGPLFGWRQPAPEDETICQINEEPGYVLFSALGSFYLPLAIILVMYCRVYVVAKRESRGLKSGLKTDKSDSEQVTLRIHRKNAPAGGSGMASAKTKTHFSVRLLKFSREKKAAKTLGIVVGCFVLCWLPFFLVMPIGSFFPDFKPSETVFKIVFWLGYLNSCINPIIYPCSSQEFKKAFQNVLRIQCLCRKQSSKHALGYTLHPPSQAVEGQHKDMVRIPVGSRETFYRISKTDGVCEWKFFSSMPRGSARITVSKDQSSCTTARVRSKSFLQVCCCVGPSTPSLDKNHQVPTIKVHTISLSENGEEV
# T6: CCR3 (Homo sapiens, UniProt P51677)
# T6 sequence (P51677 1-355): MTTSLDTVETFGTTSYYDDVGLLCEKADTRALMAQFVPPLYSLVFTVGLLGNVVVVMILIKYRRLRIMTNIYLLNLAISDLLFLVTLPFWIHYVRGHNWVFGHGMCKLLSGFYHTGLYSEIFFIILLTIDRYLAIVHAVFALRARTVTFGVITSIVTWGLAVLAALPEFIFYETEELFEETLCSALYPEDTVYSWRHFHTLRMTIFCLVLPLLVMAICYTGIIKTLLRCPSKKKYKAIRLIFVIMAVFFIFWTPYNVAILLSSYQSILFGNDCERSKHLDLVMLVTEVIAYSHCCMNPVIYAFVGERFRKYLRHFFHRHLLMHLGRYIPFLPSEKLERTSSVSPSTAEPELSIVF
# T7: CX3CR1 (Homo sapiens, UniProt P49238)
# T7 sequence (P49238 1-355): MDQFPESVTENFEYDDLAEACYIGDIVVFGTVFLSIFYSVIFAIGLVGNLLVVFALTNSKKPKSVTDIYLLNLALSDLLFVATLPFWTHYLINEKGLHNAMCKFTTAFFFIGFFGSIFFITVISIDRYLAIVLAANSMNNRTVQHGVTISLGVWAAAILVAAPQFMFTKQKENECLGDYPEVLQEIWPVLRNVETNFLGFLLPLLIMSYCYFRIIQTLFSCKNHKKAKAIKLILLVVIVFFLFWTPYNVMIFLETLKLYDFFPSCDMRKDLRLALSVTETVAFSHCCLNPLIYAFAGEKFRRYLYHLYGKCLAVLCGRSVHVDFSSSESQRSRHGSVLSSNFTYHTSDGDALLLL
# T8: CCR10 (Homo sapiens, UniProt P46092)
# T8 sequence (P46092 1-362): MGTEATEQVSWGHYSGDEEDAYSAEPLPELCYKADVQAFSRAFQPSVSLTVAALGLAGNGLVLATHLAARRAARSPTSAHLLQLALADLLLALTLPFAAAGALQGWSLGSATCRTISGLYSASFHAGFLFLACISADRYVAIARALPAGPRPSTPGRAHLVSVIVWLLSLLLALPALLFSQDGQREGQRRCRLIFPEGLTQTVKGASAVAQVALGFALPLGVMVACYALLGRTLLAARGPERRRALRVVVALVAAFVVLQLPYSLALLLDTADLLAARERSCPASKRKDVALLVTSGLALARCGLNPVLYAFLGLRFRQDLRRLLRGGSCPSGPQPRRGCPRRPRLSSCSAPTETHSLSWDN
# T9: CCR9 (Homo sapiens, UniProt P51686)
# T9 sequence (P51686 1-369): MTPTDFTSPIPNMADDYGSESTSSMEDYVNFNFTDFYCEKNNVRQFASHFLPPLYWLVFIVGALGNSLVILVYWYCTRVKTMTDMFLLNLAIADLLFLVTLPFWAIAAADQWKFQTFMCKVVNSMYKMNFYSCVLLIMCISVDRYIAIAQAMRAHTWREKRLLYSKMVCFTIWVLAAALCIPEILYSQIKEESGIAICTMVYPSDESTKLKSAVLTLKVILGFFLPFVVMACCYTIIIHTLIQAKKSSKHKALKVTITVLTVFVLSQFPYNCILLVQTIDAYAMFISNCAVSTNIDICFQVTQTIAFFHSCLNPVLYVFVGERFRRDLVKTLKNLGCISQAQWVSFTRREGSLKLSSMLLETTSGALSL
# B1: eotaxin 2: chemokine, reference agonist for CCR3 (protein, UniProt O00175 27-119, looked up)
# C-C motif chemokine 24: VVIPSPCCMFFVSKRIPENRVVSYQLSSRSTCLKAGVIFTTKKGQQFCGDPKQEWVQRYMKNLDAKQKKASPRARAVAVKGPVQRYPGNQTTC
# B2: CX3CL1: chemokine, reference agonist for CX3CR1 (protein, UniProt P78423 25-397, looked up)
# Fractalkine: QHHGVTKCNITCSKMTSKIPVALLIHYQQNQASCGKRAIILETRQHRLFCADPKEQWVKDAMQHLDRQAAALTRNGGTFEKQIGEVKPRTTPAAGGMDESVVLEPEATGESSSLEPTPSSQEAQRALGTSPELPTGVTGSSGTRLPPTPKAQDGGPVGTELFRVPPVSTAATWQSSAPHQPGPSLWAEAKTSEAPSTQDPSTQASTASSPAPEENAPSEGQRVWGQGQSPRPENSLEREEMGPVPAHTDAFQDWGPGSMAHVSVVPVSSEGTPSREPVASGSWTPKAEEPIHATMDPQRLGVLITPVPDAQAATRRQAVGLLAFLGLLFCLGVAMFTYQSLQGCPRKMAGEMAEGLRYIPRSCGSNSYVLVPV
# B3: MIP-II: reference antagonist for CXCR4 (protein)
# chain: LGASWHRPDKCCLGYQKRPLPQVLLSSWYPTSQLCSKPGVIFLTKRGRQVCADKSKDWVKKLMQQLPVTAR
# B4: CXCL16: chemokine, reference agonist for CXCR6 (protein, UniProt Q9H2A7 30-254, looked up)
# C-X-C motif chemokine 16: NEGSVTGSCYCGKRISSDSPPSVQFMNRLRKHLRAYHRCLYYTRFQLLSWSVCGGNKDPWVQELMSCLDLKECGHAYSGIVAHQKHLLPTSPPISQASEGASSDIHTPAQMLLSTLQSTQRPTLPVGSLSSDKELTRPNETTIHTAGHSLAAGPEAGENQKQPEKNAGPTARTSATVPVLCLLAIIFILTAALSYVLCKRRRGQSPQSSPDLPVHYIPVAPDSNT
# B5: CTACK/CCL27: chemokine, reference agonist for CCR10 (protein, UniProt Q9Y4X3 25-112, looked up)
# C-C motif chemokine 27: FLLPPSTACCTQLYRKPLSDKLLRKVIQVELQEADGDCHLQAFVLHLAQRSICIHPQNPSLSQWFEHQERKLHGTLPKLNFGMLRKMG
# B6: CCL25: chemokine, reference agonist for CCR9 (protein, UniProt O15444 24-150, looked up)
# C-C motif chemokine 25: QGVFEDCCLAYHYPIGWAVLRRAWTYRIQEVSGSCNLPAAIFYLPKRHRKVCGNPKSREVQRAMKLLDARNKVFAKLHHNTQTFQAGPHAVKKLSSGNSKLSSSKFSNPISSSKRNVSLLISANSGL
# Key:
# M5 = target: T1, M5; assay: Binding assay M5; conditions: reference compound
# CXCR5 = target: T2, CXCR5; assay: Cellular functional assay CXCR5; conditions: reference agonist
# CXCR3 = target: T3, CXCR3; assay: Cellular functional assay CXCR3; conditions: reference agonist
# CXCR1 = target: T4, CXCR1; assay: Cellular functional assay CXCR1; conditions: reference agonist
# ADR1A = target: T5, ADR1A; assay: Binding assay ADR1A; conditions: reference compound
# CCR3 = target: T6, CCR3; assay: Cellular functional assay CCR3
# P2Y = assay: Binding assay P2Y; set-up: species or system human; conditions: reference compound
# CX3CR1 = target: T7, CX3CR1; assay: Cellular functional assay CX3CR1; conditions: reference agonist
# CXCR4 = CXCR4 (Homo sapiens, UniProt P61073); assay: Cellular functional assay CXCR4; conditions: reference antagonist
# Chain of CXCR4 (P61073 whole entry): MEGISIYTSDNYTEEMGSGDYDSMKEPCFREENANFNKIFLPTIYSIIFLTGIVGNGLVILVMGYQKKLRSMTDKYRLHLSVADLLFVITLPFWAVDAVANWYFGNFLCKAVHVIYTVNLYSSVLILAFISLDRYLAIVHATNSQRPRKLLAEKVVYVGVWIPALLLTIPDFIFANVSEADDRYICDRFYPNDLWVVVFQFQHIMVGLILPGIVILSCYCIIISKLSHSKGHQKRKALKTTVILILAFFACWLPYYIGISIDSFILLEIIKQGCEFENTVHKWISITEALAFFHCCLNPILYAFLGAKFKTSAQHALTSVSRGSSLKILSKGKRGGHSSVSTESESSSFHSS
# CXCR6 = CXCR6 (Homo sapiens, UniProt O00574); assay: Cellular functional assay CXCR6; conditions: reference agonist
# Chain of CXCR6 (O00574 whole entry): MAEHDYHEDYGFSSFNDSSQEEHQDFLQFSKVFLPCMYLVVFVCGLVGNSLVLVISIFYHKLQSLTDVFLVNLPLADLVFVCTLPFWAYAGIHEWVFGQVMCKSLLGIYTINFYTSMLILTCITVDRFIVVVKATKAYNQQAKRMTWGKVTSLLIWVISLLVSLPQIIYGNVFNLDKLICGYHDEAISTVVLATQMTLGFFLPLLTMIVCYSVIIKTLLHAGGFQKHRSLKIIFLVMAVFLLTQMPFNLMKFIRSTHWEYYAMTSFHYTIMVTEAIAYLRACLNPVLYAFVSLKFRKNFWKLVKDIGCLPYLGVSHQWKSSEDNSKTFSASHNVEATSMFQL
# CCR10 = target: T8, CCR10; assay: Cellular functional assay CCR10; conditions: reference agonist
# CCR9 = target: T9, CCR9; assay: Cellular functional assay CCR9; conditions: reference agonist
molecule,measurement,setting,value
"C[N+]1(C)CCC(OC(=O)C(c2ccccc2)c2ccccc2)CC1 [Compound 4-DAMP, 4-DAMP, reference compound]",IC50,M5,0.73 nM
same,Ki,M5,0.37 nM
"CXCL13/BLC/BCA-1: chemokine, reference agonist for CXCR5",EC50,CXCR5,3.8 nM
"I-TAC: chemokine, reference agonist for CXCR3",EC50,CXCR3,2.3 nM
"rhIL-8: recombinant chemokine, reference agonist for CXCR1",EC50,CXCR1,4.7 nM
"COc1cccc(OC)c1OCCNCC1COc2ccccc2O1 (stereo not drawn) [WB 4101, reference compound]",IC50,ADR1A,0.39 nM
"CC[N+]1(C/C2=C/CCCCCC2)CCC(NC(=O)C2c3cc(Cl)ccc3Oc3ccc(Cl)cc32)CC1 (stereo not drawn) [Compound J113863, J113863, reference compound]",IC50,CCR3; reference antagonist,8.9 nM
dATPS [reference compound],IC50,P2Y,51 nM
same,Ki,P2Y,25 nM
B1,EC50,CCR3; reference agonist,6.4 nM
B2,EC50,CX3CR1,2.2 nM
B3,IC50,CXCR4,150 nM
B4,EC50,CXCR6,1.6 nM
B5,EC50,CCR10,5 nM
B6,EC50,CCR9,2 nM
